Reference: publication PMC6051995, “p38-mediated phosphorylation at T367 induces EZH2 cytoplasmic localization to promote breast cancer metastasis” (Nature Communications, 2018)
Blank lines part the entries; values can stand above or below the binder they belong to.

Tests used:
[1] = biological target: T1, Recombinant vinculin protein (UniProt P18206-2 1-1066); experiment: BLI; same experiment as a1 (EZH2 immobilised, 30 °C, HBS-P); steady state analysis of response against concentration; conditions: both partners purified
T1 construct: vinculin, recombinant; The BLI methods describe EZH2 and p38α but say nothing of the vinculin protein
T1 sequence (looked up): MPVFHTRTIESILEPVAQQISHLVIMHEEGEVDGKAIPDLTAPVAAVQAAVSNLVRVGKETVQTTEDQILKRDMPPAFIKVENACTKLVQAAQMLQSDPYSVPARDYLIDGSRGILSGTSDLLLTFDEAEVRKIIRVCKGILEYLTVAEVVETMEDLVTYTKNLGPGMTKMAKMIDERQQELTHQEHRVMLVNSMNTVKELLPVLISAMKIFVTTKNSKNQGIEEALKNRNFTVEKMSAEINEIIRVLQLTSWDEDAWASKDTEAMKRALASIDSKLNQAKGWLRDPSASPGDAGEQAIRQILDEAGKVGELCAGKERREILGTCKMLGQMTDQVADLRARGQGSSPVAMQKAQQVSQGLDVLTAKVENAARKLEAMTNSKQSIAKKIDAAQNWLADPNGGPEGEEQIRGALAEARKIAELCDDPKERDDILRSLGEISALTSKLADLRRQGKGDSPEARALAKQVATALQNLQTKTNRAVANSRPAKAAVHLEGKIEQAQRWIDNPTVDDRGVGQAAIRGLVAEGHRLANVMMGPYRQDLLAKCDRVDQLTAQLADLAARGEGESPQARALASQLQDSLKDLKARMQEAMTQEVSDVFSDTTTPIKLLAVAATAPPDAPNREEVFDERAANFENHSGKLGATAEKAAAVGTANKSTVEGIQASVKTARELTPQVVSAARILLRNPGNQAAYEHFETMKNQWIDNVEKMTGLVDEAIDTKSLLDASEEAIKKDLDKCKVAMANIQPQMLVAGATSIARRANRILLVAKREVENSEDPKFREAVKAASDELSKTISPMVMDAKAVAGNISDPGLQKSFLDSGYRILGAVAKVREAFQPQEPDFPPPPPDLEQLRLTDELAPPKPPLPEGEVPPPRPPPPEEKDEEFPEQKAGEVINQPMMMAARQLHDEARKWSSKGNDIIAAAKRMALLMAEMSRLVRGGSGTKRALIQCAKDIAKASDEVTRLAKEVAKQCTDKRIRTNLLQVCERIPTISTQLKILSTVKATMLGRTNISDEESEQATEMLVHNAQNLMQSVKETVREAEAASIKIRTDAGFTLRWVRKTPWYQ

[2] = biological target: T1, Recombinant vinculin protein; experiment: BLI; biotinylated GST-EZH2 immobilised on Super Streptavidin (SSA) biosensors; analyte in a concentration series; OctetRED96; 30 °C; HBS-P (10 mM HEPES pH 7.4, 150 mM NaCl, 0.005% tween-20); double referencing; kinetic fit, 1:1 binding model; conditions: both partners purified
[3] = biological target: T2, pEZH2(T367) (endogenous EZH2 phosphorylated at T367) (human (endogenous in MDA-MB-231), UniProt Q15910 1-746, phosphothreonine at 367); experiment: co-IP; endogenous proteins from whole cell extracts of MDA-MB-231 cells; magnetic Dynabeads with antibody (EZH2, pEZH2 or vinculin); with or without doxycycline to induce MKK6EE and p38 activation; conditions: partners not purified
T2 construct: EZH2, endogenous, phosphorylated at T367 by p38; also called phosphorylated EZH2 (T367); source: endogenous, MDA-MB-231 (whole cell extracts; fixed cells for PLA)
T2 sequence (Q15910 whole entry): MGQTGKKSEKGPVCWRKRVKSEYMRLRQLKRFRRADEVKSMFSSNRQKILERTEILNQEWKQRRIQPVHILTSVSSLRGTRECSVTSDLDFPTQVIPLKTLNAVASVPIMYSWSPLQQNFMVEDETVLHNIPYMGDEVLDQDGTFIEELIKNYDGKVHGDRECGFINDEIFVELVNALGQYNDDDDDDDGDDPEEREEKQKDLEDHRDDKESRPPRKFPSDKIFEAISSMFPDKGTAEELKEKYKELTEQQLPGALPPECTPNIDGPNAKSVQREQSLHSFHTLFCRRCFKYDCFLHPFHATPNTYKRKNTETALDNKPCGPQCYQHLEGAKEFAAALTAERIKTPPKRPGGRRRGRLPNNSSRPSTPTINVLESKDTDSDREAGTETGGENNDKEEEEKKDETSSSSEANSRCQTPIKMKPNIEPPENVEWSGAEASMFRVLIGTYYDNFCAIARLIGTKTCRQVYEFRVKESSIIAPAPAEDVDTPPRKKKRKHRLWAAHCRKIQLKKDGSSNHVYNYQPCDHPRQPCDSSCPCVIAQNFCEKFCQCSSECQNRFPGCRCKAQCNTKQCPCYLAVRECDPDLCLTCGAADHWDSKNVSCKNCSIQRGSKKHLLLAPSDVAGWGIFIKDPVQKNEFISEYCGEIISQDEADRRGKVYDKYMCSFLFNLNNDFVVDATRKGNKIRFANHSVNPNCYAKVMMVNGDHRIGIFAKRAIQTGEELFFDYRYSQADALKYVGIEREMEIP

Kd [1]: 42 nM
Kd [2]: 15 nM
koff [2]: 0.00385 s⁻¹
kon [2]: 294000 M⁻¹ s⁻¹
B1: Recombinant EZH2 (GST-EZH2 aa 2-end) (natural protein)
chain: not shown
modifications: biotin (Sulpho-NHS-LC-biotin, protein and biotin mixed 1:1 molar ratio)
notes: EZH2 (Enhancer of zeste homolog 2), aa 2-end; GST-EZH2 MW = 114 kDa; The vendor is printed only as 'Bioscience'; also called Enhancer of zeste homolog 2; immobilized EZH2; source: bought: Bioscience (recombinant)

fold increase of binding on p38 activation against uninduced controls [3]: ~10 fold
B2: vinculin (endogenous) (natural protein, human (endogenous in MDA-MB-231), UniProt P18206-2 1-1066, looked up)
chain: T1 sequence (looked up)
notes: vinculin, endogenous; source: endogenous, MDA-MB-231 (whole cell lysate; fixed cells for PLA)
